# Laboratory results published in patent US20060292634A1.
# Read-outs that look alike come from different tables or passages of the source.
# Columns and labels:
# [1] = target: ELK (3% skim milk powder solution); test: ELISA, ELK-coated control well, ~50 ng iMab per well, anti-VSV-HRP; urea-purified
# [2] = target: ELK (3% skim milk powder solution); test: ELISA, ELK-coated control well, ~5 ng iMab per well, anti-VSV-HRP; urea-purified
# [3] = target: chicken lysozyme (chicken), P00698; test: ELISA vs. lysozyme, iMab dilution 1:10, before pH 4.8 precipitation; details: remark: other sources report otherwise
# Sequence of chicken lysozyme (chicken), P00698 (P00698 19-147 limits assumed): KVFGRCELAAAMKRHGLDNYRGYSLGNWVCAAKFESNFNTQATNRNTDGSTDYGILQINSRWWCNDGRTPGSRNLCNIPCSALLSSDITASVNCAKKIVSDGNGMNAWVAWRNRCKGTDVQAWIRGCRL
# [4] = target: chicken lysozyme (chicken), P00698; test: ELISA vs. lysozyme, iMab dilution 1:100, before pH 4.8 precipitation; details: remark: other sources report otherwise
# [5] = target: chicken lysozyme (chicken), P00698; test: ELISA vs. lysozyme, iMab dilution 1:1000, before pH 4.8 precipitation; details: remark: other sources report otherwise
# [6] = target: chicken lysozyme (chicken), P00698; test: ELISA vs. lysozyme, iMab dilution 1:10,000, before pH 4.8 precipitation; details: remark: other sources report otherwise
# [7] = target: ELK (3% skim milk powder solution); test: ELISA, ELK-coated control well, ~50 ng iMab per well, anti-VSV-HRP; heat (60 °C) purified
# [8] = target: chicken lysozyme (chicken), P00698; test: ELISA vs. lysozyme, iMab dilution 1:10, after precipitation at pH 4.8 and redissolving; details: remark: other sources report otherwise
# [9] = target: chicken lysozyme (chicken), P00698; test: ELISA vs. lysozyme, iMab dilution 1:100, after precipitation at pH 4.8 and redissolving; details: remark: other sources report otherwise
# [10] = target: chicken lysozyme (chicken), P00698; test: ELISA vs. lysozyme, iMab dilution 1:1000, after precipitation at pH 4.8 and redissolving; details: remark: other sources report otherwise
# [11] = target: chicken lysozyme (chicken), P00698; test: ELISA, lysozyme-coated well (100 µg/ml), ~50 ng iMab per well, anti-VSV-HRP; urea-purified; details: remark: other sources report otherwise
# [12] = target: chicken lysozyme (chicken), P00698; test: ELISA vs. lysozyme, iMab dilution 1:10,000, after precipitation at pH 4.8 and redissolving; details: remark: other sources report otherwise
# [13] = target: chicken lysozyme (chicken), P00698; test: ELISA, lysozyme-coated well (100 µg/ml), ~50 ng iMab per well, anti-VSV-HRP; heat (60 °C) purified; details: remark: other sources report otherwise
# [14] = target: ELK (3% skim milk powder solution)
# [15] = target: ELK (3% skim milk powder solution); test: ELISA, ELK-coated control well, ~20 ng iMab per well, anti-VSV-HRP; urea-purified
binder,measurement,setting,value
"iMab122 (designed binder, not shown: small tags and cut ends) NVKLVEKGGNFVENDDDLKLTCRASGRTFSSRTMGWFRQAPNDDSTNVATIRWNGGSTYYTNYGDSVKERFDIRVDQASNTVTLSMDDLQPEDSAEYNCAGTDIGDGWSGRYDYRGQGTDVTVSS",Absorbtion (450 nm),[1],0.051 A450
iMab1200 (designed binder) HGLPMEKRGNFIVGQNCSLTCPASGYTIGPQCVFNCYFNSALAFSTENMGEWTLDMVFSDAGIYTMCAADSTIYASYYECGHGLSTGGYGYNPVSLGSFVVDSP,Absorbtion (450 nm),[2],0.04 A450
"iMab1602 (designed binder, not shown: small tags and cut ends) AVKPVIGSKAPNFGENGDVKTIDRASGYTIGPTCGGVFFQGPTDDSTNVATINMGGGITYYGDSVKETFDIRRDNAKSTRTESYDDNQPEGLTEVKCAADSTIYASYYECGHGLSTGGYGYDVSSRLYGYDILVGTQ",Absorbtion (450 nm),[1],0.043 A450
"iMab1202 (designed binder, not shown: small tags and cut ends) IVKLVMEKRGNFENGQDCKLTIRASGYTIGPACDGFFCQFPSDDSFSTEDNMGGGITVNDAMKPQFDIRRDNAKGTWTLSMDFQPEGIYEMQCAADSTIYASYYECGHGLSTGGYGYDNPVRLGGFDVDVPDV",Absorbtion (450 nm),[1],0.041 A450
"iMab111 (designed binder, not shown: small tags and cut ends) NVKLVCKGGNFVENDDDLKLTCRAEGYTIGPYCMGWFRQAPNDDSTNVATINMGGGITYYGDSVKERFDIRRDNASNTVTLSMDDLQPEDSAEYNCAGDSTIYASYYECGHGLSTGGYGYDSHYRCQGTDVTVSS",Absorbtion (450 nm),[1],0.043 A450
"iMab100 (designed binder, not shown: small tags and cut ends) NVKLVEKGGNFVENDDDLKLTCRAEGYTIGPYCMGWFRQAPNDDSTNVATINMGGGITYYGDSVKERFDIRRDNASNTVTLSMDDLQPEDSAEYNCAGDSTIYASYYECGHGLSTGGYGYDSHYRGQGTDVTVSS",Absorbtion (450 nm),[1],0.04 A450
same,Signal on Elisa,[3],0.36
same,Signal on Elisa,[4],0.228
same,Signal on Elisa,[5],0.128
same,Signal on Elisa,[6],0.059
same,Absorbtion (450 nm),[7],0.041 A450
same,Signal on Elisa,[8],0.39
same,Signal on Elisa,[9],0.263
same,Signal on Elisa,[10],0.169
same,Absorbtion (450 nm),[11],0.494 A450
same,Signal on Elisa,[12],0.059
same,Absorbtion (450 nm),[13],0.369 A450
"iMab1302 (designed binder, not shown: small tags and cut ends) VVKVVIKPSQNFIENGEDKKFTCRASGYTIGPKCIGWFSQNPEDDSTNVATINMGGGITYYGDSVKERFDIRRDNAKDTSTLSIDDAQPEDAGIYKCAADSTIYASYYECGHGLSTGGYGYDSEATVGVDIFVKLM",Absorbtion (450 nm),[1],0.045 A450
"iMab1300 (designed binder, not shown: small tags and cut ends) LQVDIKPSQGEISVGESKFFLCQASGYTIGPCISWFSPNGEKLNMGSSTLTIYNANIDDAGIYKCAADSTIYASYYECGHGLSTGGYGYQSEATVNVKIFQ",Absorbtion (450 nm),[1],0.041 A450
iMab701 (designed binder) MASTITCEASGYTIGPACVAFDTTLGNNMGTYSAPLTSTTLGVATVTCAADSTIYASYYECGHGLSTGGYGYAAFSVPSVTVNFTA,Absorbtion (450 nm),[14],0.069 A450
"iMab101 (designed binder, not shown: small tags and cut ends) VKLVEKGGNFVENDDDLKLTCRASGYTIGPYCMGWFRQAPNDDSTNVATINMGTVTLSMDDLQPEDSAEYNCAADSTIYASYYECGHGLSTGGYGYDSHYRGQGTDVTVSS",Absorbtion (450 nm),[15],0.043 A450
